According to patent US20250043028A1 (Hoffmann-La Roche, published 2025):

T1: human CEA expressed on tumor cells (LS-174T, MKN-45, MC38-huCEA) (human, UniProt P06731 35-685)
T1 construct: whole, on cells; also called Carcinoembryonic antigen
T1 sequence (looked up): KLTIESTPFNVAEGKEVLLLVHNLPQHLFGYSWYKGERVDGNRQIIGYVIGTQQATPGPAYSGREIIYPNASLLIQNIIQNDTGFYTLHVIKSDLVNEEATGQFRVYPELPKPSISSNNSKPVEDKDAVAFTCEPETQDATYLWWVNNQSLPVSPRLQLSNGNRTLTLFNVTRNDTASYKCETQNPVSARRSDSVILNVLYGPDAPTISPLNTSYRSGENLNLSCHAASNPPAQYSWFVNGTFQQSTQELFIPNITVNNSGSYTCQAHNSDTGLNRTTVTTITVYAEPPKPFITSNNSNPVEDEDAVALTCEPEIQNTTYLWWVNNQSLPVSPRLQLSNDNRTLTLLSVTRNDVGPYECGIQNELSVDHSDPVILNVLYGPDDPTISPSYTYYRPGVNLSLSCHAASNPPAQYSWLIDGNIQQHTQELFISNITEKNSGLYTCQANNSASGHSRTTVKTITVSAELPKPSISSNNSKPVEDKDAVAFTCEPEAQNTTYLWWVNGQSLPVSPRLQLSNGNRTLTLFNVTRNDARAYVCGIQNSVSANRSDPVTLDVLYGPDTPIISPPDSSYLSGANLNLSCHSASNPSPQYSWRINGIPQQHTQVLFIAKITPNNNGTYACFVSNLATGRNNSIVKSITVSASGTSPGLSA

T2: muFcγRIV-aviHis-biotin (murine, UniProt A0A0B4J1G0 21-203, Biotin on the lysine of the Avi tag (tag left out of the letters); C-terminal His tag used for capture by the anti-Penta His antibody)
T2 construct: Captured on an anti-Penta His antibody on a CM5 chip; also called murine FcγRIV; not shown: Avi-His tag (and any linker to it)
T2 sequence: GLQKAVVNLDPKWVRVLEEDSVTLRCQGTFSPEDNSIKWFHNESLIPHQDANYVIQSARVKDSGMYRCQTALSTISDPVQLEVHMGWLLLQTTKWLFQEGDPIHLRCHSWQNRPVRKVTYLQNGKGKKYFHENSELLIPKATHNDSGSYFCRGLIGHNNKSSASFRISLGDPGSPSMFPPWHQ

B1: “2+1 IgG Crossfab, inverted”; CL/CH1 exchange (CH1A1A/V9) (anti-CEA/anti-huCD3) (bispecific antibody)
chain 1: QVQLVQSGAEVKKPGASVKVSCKASGYTFTEFGMNWVRQAPGQGLEWMGWINTKTGEATYVEEFKGRVTFTTDTSTSTAYMELRSLRSDDTAVYYCARWDFAYYVEAMDYWGQGTTVTVSSASTKGPSVFPLAPSSKSTSGGTAALGCLVKDYFPEPVTVSWNSGALTSGVHTFPAVLQSSGLYSLSSVVTVPSSSLGTQTYICNVNHKPSNTKVDKKVEPKSCDKTHTCPPCPAPEAAGGPSVFLFPPKPKDTLMISRTPEVTCVVVDVSHEDPEVKFNWYVDGVEVHNAKTKPREEQYNSTYRVVSVLTVLHQDWLNGKEYKCKVSNKALGAPIEKTISKAKGQPREPQVCTLPPSRDELTKNQVSLSCAVKGFYPSDIAVEWESNGQPENNYKTTPPVLDSDGSFFLVSKLTVDKSRWQQGNVFSCSVMHEALHNHYTQKSLSLSPGK
chain 2: DIQMTQSPSSLSASVGDRVTITCKASAAVGTYVAWYQQKPGKAPKLLIYSASYRKRGVPSRFSGSGSGTDFTLTISSLQPEDFATYYCHQYYTYPLFTFGQGTKLEIKRTVAAPSVFIFPPSDEQLKSGTASVVCLLNNFYPREAKVQWKVDNALQSGNSQESVTEQDSKDSTYSLSSTLTLSKADYEKHKVYACEVTHQGLSSPVTKSFNRGEC
chain 3: DIQMTQSPSSLSASVGDRVTITCRASQDIRNYLNWYQQKPGKAPKLLIYYTSRLESGVPSRFSGSGSGTDYTLTISSLQPEDFATYYCQQGNTLPWTFGQGTKVEIKSSASTKGPSVFPLAPSSKSTSGGTAALGCLVKDYFPEPVTVSWNSGALTSGVHTFPAVLQSSGLYSLSSVVTVPSSSLGTQTYICNVNHKPSNTKVDKKVEPKSC
chain 4: not shown
notes: also called CL/CH1-exchange construct
B2: “2+1 IgG Crossfab, inverted”; VL/VH exchange (CH1A1A/V9) (anti-CEA/anti-huCD3) (bispecific antibody)
chain 1: EVQLVESGGGLVQPGGSLRLSCAASGYSFTGYTMNWVRQAPGKGLEWVALINPYKGVSTYNQKFKDRFTISVDKSKNTAYLQMNSLRAEDTAVYYCARSGYYGDSDWYFDVWGQGTLVTVSSASVAAPSVFIFPPSDEQLKSGTASVVCLLNNFYPREAKVQWKVDNALQSGNSQESVTEQDSKDSTYSLSSTLTLSKADYEKHKVYACEVTHQGLSSPVTKSFNRGEC
chain 2: not shown
chain 3: QVQLVQSGAEVKKPGASVKVSCKASGYTFTEFGMNWVRQAPGQGLEWMGWINTKTGEATYVEEFKGRVTFTTDTSTSTAYMELRSLRSDDTAVYYCARWDFAYYVEAMDYWGQGTTVTVSSASTKGPSVFPLAPSSKSTSGGTAALGCLVKDYFPEPVTVSWNSGALTSGVHTFPAVLQSSGLYSLSSVVTVPSSSLGTQTYICNVNHKPSNTKVDKKVEPKSCDKTHTCPPCPAPEAAGGPSVFLFPPKPKDTLMISRTPEVTCVVVDVSHEDPEVKFNWYVDGVEVHNAKTKPREEQYNSTYRVVSVLTVLHQDWLNGKEYKCKVSNKALGAPIEKTISKAKGQPREPQVCTLPPSRDELTKNQVSLSCAVKGFYPSDIAVEWESNGQPENNYKTTPPVLDSDGSFFLVSKLTVDKSRWQQGNVFSCSVMHEALHNHYTQKSLSLSPGK
chain 4: DIQMTQSPSSLSASVGDRVTITCKASAAVGTYVAWYQQKPGKAPKLLIYSASYRKRGVPSRFSGSGSGTDFTLTISSLQPEDFATYYCHQYYTYPLFTFGQGTKLEIKRTVAAPSVFIFPPSDEQLKSGTASVVCLLNNFYPREAKVQWKVDNALQSGNSQESVTEQDSKDSTYSLSSTLTLSKADYEKHKVYACEVTHQGLSSPVTKSFNRGEC
notes: also called VL/VH-exchange construct
B3: “2+1 IgG scFab, wt” (anti-MCSP/anti-huCD3) (bispecific antibody)
chain 1: DIVLTQSPSSLSASLGDRVTISCSASQGIRNYLNWYQQRPDGTVKLLIYYTSSLHSGVPSRFSGSGSGTDYSLTISNLEPEDIATYYCQQYSKLPWTFGGGTKLEIKRTVAAPSVFIFPPSDEQLKSGTASVVCLLNNFYPREAKVQWKVDNALQSGNSQESVTEQDSKDSTYSLSSTLTLSKADYEKHKVYACEVTHQGLSSPVTKSFNRGEC
chain 2: not shown
chain 3: not shown
notes: Wild-type Fc domain; vectors transfected 1:2:1 (heavy chain : light chain : heavy chain-scFab); also called Fc-wt; copies: 2 + 1 + 1

Tests used:
[1] = biological target: T3, human CD3 expressed on Jurkat cells (human, UniProt P07766 23-207); test: flow cytometry on Jurkat cells; CL/CH1 exchange; CD3 on Jurkat cells
T3 construct: CD3 as part of the T cell receptor complex on Jurkat cells; also called huCD3; human CD3 on cells
Experimental: (§1) Binding of the different bispecific constructs to CD3 on Jurkat cells (ATCC #TIB-152), and the respective tumor antigen on target cells, was determined by FACS. Briefly, cells were harvested, counted and checked for viability. 0.15-0.2 million cells per well (in PBS containing 0.1% BSA; 90 μl) were plated in a round-bottom 96-well plate and incubated with the indicated concentration of the bispecific constructs and corresponding IgG controls (10 μl) for 30 min at 4° C. For a better comparison, all constructs and IgG controls were normalized to same molarity. […] Bound constructs were detected using a FACSCantoII (Software FACS Diva). The “(scFv)₂” molecule was detected using a FITC-conjugated anti-His antibody (Lucerna, #RHIS-45F-Z). […] Unless otherwise indicated, cells were fixed with 100 μl/well fixation buffer (BD #554655) for 15 min at 4° C. in the dark, centrifuged for 6 min at 400×g and kept in 200 μl/well PBS containing 0.1% BSA until the samples were measured with FACS CantoII. EC50 values were calculated using the GraphPad Prism software.
(§2) As a control, the equivalent maximum concentration of the corresponding IgGs and the background staining due to the labeled 2ndary antibody (goat anti-human FITC-conjugated AffiniPure F(ab′)₂ Fragment, Fcγ Fragment-specific, Jackson Immuno Research Lab #109-096-098) were assessed as well.

[2] = biological target: T1, human CEA expressed on tumor cells …; test: flow cytometry on LS-174T cells; CL/CH1 exchange; CEA on LS-174T cells
Experimental: as §1, §2

[3] = biological target: T1, human CEA expressed on tumor cells …; test: cell-based or functional assay
[4] = biological target: T1, human CEA expressed on tumor cells …; test: flow cytometry on LS-174T cells; VL/VH exchange; CEA on LS-174T cells
Experimental: as §1, §2

[5] = biological target: T3, human CD3 expressed on Jurkat cells; test: flow cytometry on Jurkat cells; VL/VH exchange; CD3 on Jurkat cells
Experimental: as §1, §2

[6] = biological target: T4, HuFcγRIIIa-V158-K6H6 (human, UniProt P08637 17-208); test: SPR Biacore T100, 25 °C, kinetic fit, one concentration (1000 nM); receptor captured via anti-Penta His
T4 construct: Captured on an anti-Penta His antibody on a CM5 chip; also called human FcγRIIIa-V158; human FcγRIIIa; not shown: K6H6 tag
Experimental: (§3) For analyzing interaction of different Fc-variants with human FcγRIIIa-V158 and murine FcγRIV direct coupling of around 6,500 resonance units (RU) of the anti-Penta His antibody (Qiagen) is performed on a CM5 chip at pH 5.0 using the standard amine coupling kit (Biacore, Freiburg/Germany). HuFcγRIIIa-V158-K6H6 and muFcγRIV-aviHis-biotin are captured for 60 s at 4 and 10 nM respectively.
(§4) Constructs with different Fc-mutations are passed through the flow cells for 120 s at a concentration of 1000 nM with a flow rate of 30 μl/min. The dissociation is monitored for 220 s. Bulk refractive index differences are corrected for by subtracting the response obtained in a reference flow cell. Here, the Fc-variants are flown over a surface with immobilized anti-Penta His antibody but on which HBS-EP has been injected rather than HuFcγRIIIa-V158-K6H6 or muFcγRIV-aviHis-biotin. Affinity for human FcγRIIIa-V158 and murine FcγRIV was determined for wild-type Fc using a concentration range from 500-4000 nM.
(§5) The steady state response was used to derive the dissociation constant KD by non-linear curve fitting of the Langmuir binding isotherm. Kinetic constants were derived using the Biacore T100 Evaluation Software (vAA, Biacore AB, Uppsala/Sweden), to fit rate equations for 1:1 Langmuir binding by numerical integration.

[7] = biological target: T2, muFcγRIV-aviHis-biotin; test: SPR Biacore T100, 25 °C, kinetic fit; receptor captured via anti-Penta His
Experimental: as §3, §4, §5

[8] = biological target: T4, HuFcγRIIIa-V158-K6H6; test: SPR Biacore T100, 25 °C, kinetic fit (value in brackets, not explained); receptor captured via anti-Penta His
Experimental: as §3, §4, §5

[9] = biological target: T2, muFcγRIV-aviHis-biotin; test: SPR Biacore T100, 25 °C, steady state; receptor captured via anti-Penta His, construct 500-4000 nM
Experimental: as §3, §4, §5

[10] = biological target: T4, HuFcγRIIIa-V158-K6H6; test: as above
Experimental: as §3, §4, §5

T4 sequence (P08637 17-208 F176V): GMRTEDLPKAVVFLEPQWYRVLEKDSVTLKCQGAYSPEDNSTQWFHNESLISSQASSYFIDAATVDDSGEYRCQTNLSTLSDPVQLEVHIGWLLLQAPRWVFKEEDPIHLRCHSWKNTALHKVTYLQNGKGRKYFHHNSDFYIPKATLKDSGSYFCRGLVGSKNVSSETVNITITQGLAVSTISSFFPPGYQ
T3 sequence (P07766 23-207 limits assumed): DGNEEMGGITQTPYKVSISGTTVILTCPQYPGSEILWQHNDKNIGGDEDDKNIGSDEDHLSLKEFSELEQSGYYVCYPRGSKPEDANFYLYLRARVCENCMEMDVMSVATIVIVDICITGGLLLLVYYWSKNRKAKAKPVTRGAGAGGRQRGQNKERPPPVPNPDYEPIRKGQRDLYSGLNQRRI

Binder | EC50 [1] | EC50 [2] | EC50 of killing (LDH release) of LS-174T cells, human PBMCs, E:T 10:1, 28 h [3] | EC50 of killing (LDH release) of MKN-45 cells, human PBMCs, E:T 10:1, 28 h [3] | EC50 [4] | EC50 [5] | Kd [6] | Kd [7] | Kd [8] | Kd [9] | Kd [10]
B1 | 3.9 nM | 6.7 nM | 0.673 nM | 0.115 nM |  |  |  |  |  |  | 
B2 |  |  | 0.955 nM | 0.243 nM | 9.3 nM | 4.6 nM |  |  |  |  | 
B3 |  |  |  |  |  |  | 600 nM | 576 nM | 1200 nM | 1500 nM | 3470 nM
